PMC12154632

Columns and labels:
[1] = target: paused elongation complex PEC-161 (E. coli RNAP stalled at C161 of the Bsu-GTR template) (E. coli); assay: single-molecule fluorescence colocalisation
[2] = target: paused elongation complex PEC-225 (E. coli RNAP stalled at U225 of the Bsu-GTR template) (E. coli); assay: single-molecule fluorescence colocalisation
paused elongation complex PEC-225 (E. coli RNAP stalled at U225 of the Bsu-GTR template) (E. coli), sequence (A1AGI6 whole entry, chain 1 of 4): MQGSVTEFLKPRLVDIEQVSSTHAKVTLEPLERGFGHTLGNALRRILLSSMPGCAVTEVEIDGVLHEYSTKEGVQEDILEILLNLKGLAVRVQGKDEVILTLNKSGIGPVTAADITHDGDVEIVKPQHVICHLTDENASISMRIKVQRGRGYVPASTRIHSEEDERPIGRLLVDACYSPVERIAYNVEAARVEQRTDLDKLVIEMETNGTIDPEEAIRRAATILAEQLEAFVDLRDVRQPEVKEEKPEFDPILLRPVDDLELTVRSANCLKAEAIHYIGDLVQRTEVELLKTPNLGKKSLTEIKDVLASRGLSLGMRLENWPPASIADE
paused elongation complex PEC-225 (E. coli RNAP stalled at U225 of the Bsu-GTR template) (E. coli), sequence (A1AIF9 whole entry, chain 2 of 4, further chain): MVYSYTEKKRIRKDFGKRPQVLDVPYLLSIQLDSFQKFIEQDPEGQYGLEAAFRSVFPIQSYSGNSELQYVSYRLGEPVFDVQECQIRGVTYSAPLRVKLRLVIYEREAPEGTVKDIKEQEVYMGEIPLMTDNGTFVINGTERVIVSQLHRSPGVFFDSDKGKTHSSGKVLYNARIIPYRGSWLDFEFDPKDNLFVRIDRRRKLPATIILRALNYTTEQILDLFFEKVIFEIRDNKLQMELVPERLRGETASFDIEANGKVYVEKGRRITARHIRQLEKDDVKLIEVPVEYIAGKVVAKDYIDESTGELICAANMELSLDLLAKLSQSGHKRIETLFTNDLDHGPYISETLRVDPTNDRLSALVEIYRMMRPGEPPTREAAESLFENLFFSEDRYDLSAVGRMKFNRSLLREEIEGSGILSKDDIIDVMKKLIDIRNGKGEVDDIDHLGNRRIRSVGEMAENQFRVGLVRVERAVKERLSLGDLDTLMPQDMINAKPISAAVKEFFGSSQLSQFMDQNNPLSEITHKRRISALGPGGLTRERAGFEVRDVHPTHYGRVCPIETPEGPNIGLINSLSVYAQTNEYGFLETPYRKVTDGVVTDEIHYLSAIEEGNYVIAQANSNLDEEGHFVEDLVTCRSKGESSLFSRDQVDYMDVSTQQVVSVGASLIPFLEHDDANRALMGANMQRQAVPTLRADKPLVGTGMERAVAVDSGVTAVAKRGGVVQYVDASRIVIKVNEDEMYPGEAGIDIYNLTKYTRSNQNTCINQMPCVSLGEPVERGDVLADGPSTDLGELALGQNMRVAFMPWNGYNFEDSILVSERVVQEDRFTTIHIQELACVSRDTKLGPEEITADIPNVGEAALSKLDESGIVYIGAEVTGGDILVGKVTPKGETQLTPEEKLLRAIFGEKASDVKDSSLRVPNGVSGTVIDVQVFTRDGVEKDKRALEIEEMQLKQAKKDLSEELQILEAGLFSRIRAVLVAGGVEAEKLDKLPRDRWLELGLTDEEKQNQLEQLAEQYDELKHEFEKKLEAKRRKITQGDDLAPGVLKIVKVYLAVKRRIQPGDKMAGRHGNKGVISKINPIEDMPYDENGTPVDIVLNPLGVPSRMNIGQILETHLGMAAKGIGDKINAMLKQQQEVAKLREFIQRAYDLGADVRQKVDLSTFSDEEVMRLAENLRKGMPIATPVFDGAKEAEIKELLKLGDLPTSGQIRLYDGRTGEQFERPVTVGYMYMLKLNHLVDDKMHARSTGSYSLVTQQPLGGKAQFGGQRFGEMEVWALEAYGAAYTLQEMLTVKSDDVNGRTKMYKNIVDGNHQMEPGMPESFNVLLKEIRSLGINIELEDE
paused elongation complex PEC-225 (E. coli RNAP stalled at U225 of the Bsu-GTR template) (E. coli), sequence (A7ZUK2 whole entry, chain 3 of 4, further chain): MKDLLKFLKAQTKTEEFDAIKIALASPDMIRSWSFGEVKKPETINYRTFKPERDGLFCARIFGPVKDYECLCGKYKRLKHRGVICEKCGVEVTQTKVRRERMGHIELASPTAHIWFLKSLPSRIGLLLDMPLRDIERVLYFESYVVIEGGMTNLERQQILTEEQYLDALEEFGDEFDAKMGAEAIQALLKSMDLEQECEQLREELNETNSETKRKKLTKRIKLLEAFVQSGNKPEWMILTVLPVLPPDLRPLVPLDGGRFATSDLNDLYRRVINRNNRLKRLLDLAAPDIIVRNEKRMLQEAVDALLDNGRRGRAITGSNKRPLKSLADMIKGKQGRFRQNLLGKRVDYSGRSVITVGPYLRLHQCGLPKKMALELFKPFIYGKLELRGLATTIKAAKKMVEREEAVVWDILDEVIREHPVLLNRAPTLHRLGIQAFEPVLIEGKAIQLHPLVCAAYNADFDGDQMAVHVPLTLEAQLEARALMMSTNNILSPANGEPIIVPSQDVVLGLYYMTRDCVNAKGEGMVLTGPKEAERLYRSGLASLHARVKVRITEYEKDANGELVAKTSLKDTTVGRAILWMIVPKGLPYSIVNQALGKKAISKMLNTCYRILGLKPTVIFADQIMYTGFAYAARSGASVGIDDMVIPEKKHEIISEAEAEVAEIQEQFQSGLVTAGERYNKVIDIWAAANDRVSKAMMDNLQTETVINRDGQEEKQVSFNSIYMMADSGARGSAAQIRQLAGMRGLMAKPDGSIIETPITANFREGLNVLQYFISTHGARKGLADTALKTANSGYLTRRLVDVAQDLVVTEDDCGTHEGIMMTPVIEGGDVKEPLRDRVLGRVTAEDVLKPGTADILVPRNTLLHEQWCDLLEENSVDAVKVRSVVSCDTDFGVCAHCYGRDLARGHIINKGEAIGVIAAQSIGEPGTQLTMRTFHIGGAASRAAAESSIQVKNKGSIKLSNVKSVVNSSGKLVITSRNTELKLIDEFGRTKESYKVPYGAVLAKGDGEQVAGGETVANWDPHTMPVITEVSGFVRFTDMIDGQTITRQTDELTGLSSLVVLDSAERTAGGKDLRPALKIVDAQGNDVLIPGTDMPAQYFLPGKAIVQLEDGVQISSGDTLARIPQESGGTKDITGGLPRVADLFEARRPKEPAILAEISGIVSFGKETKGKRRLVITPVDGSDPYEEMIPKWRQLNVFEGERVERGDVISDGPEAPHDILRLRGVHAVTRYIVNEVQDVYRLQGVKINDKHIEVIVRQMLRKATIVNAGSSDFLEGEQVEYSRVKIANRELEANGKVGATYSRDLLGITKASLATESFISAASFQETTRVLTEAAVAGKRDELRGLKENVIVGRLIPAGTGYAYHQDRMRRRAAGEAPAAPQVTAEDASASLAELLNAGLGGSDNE
paused elongation complex PEC-225 (E. coli RNAP stalled at U225 of the Bsu-GTR template) (E. coli), sequence (A1AHI0 2-91 limits assumed, chain 4 of 4, further chain): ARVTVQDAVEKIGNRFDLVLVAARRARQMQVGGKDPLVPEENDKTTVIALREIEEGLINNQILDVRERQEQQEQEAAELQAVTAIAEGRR

NusA-Cy5 (from UniProt P0AFF6 1-495) (natural protein)
koff [1]: 0.81 s⁻¹
kon [1]: 1.12e+07 M⁻¹ s⁻¹
kon, fast (fraction 45%) [1]: 2.34e+07 M⁻¹ s⁻¹
kon, slow (fraction 55%) [1]: 2.29e+06 M⁻¹ s⁻¹
koff [2]: 0.47 s⁻¹
kon [2]: 4.16e+06 M⁻¹ s⁻¹
kon, fast (fraction 50%) [2]: 7.26e+06 M⁻¹ s⁻¹
kon, slow (fraction 50%) [2]: 1.38e+06 M⁻¹ s⁻¹
